Reference: PMC6757032

Biological target: pre-formed trans-SNARE complexes between V- and T-liposomes (syntaxin-1A S186C-TMR, cysteine-free SNAP-25a, synaptobrevin-2 L26C-Alexa-488) (rat), P32851
Sequence (P32851 whole entry C145A/S186C/C271A/C272A, chain 1 of 3): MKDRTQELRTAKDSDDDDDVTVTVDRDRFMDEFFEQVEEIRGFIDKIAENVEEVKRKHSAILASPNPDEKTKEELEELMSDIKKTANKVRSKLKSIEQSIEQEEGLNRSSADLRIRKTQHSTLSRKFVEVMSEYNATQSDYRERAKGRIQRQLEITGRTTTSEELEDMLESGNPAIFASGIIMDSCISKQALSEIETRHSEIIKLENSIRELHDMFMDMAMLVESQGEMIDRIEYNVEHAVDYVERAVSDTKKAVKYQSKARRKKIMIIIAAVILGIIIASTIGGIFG
Sequence (P60881 other isoform, or with tags, fused parts or gaps, stated change not applied, chain 2 of 3, further chain): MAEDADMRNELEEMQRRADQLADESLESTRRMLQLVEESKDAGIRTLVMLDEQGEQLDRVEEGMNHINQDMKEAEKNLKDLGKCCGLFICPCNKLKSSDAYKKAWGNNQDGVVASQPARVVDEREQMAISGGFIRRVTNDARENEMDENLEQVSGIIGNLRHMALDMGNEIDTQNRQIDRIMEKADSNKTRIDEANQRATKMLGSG
Sequence (P63045 other isoform, or with tags, fused parts or gaps, stated change not applied, chain 3 of 3, further chain): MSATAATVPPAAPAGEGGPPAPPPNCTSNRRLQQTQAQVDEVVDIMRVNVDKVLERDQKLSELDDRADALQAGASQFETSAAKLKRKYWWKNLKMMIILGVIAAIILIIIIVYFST

B1: full-length Bos Taurus αSNAP, P81125 1-295 (natural protein)
chain: MDNSGKEAEAMALLAEAERKVKNSQSFFSGLFGGSSKIEEACEIYARAANMFKMAKNWSAAGSAFCQAAHVHLQLQSKHDAATCFVDAGNAFKKADPQEAINCLMRAIEIYTDMGRFTIAAKHHISIAEIYETELVDIEKAIAHYEQSADYYKGEESNSSANKCLLKVAGYAAQLEQYQKAIDIYEQVGTNAMDSPLLKYSAKDYFFKAALCHFCIDMLNAKLAVQKYEELFPAFSDSRECKRIKKLLEAHEEQNVDSYTEAVKEYDSISRLDQWLTTMLLRIKKTIQGDEEDLR
modifications: here or on the partner: tetramethylrhodamine on the cysteine at residue 186 | Alexa-488 on the cysteine at residue 26
inhibition of lipid mixing (DiD de-quenching at 37 °C) mediated by trans-SNARE complexes pre-formed between V- and T-liposomes; titration with WT αSNAP: 170 nM
